Measured values: paper PMC5095074 (2016)

B1: GST-E-cadherin-cytoplasmic domain (cd) [human] / Purified β-catenin [not stated] (parent complex)
chain 1: RAVVKEPLLPPEDDTRDNVYYYDEEGGGEEDQDFDLSQLHRGLDARPEVTRNDVAPTLMSVPRYLPRPANPDEIGNFIDENLKAADTDPTAPPYDSLLVFDYEGSGSEAASLSSLNSSESDKDQDYDYLNEWGNRFKKLADMYGGGEDD
chain 2: MATQADLMELDMAMEPDRKAAVSHWQQQSYLDSGIHSGATTTAPSLSGKGNPEEEDVDTSQVLYEWEQGFSQSFTQEQVADIDGQYAMTRAQRVRAAMFPETLDEGMQIPSTQFDAAHPTNVQRLAEPSQMLKHAVVNLINYQDDAELATRAIPELTKLLNDEDQVVVNKAAVMVHQLSKKEASRHAIMRSPQMVSAIVRTMQNTNDVETARCTAGTLHNLSHHREGLLAIFKSGGIPALVKMLGSPVDSVLFYAITTLHNLLLHQEGAKMAVRLAGGLQKMVALLNKTNVKFLAITTDCLQILAYGNQESKLIILASGGPQALVNIMRTYTYEKLLWTTSRVLKVLSVCSSNKPAIVEAGGMQALGLHLTDPSQRLVQNCLWTLRNLSDAATKQEGMEGLLGTLVQLLGSDDINVVTCAAGILSNLTCNNYKNKMMVCQVGGIEALVRTVLRAGDREDITEPAICALRHLTSRHQEAEMAQNAVRLHYGLPVVVKLLHPPSHWPLIKATVGLIRNLALCPANHAPLREQGAIPRLVQLLVRAHQDTQRRTSMGGTQQQFVEGVRMEEIVEGCTGALHILARDVHNRIVIRGLNTIPLFVQLLYSPIENIQRVAAGVLCELAQDKEAAEAIEAEGATAPLTELLHSRNEGVATYAAAVLFRMSEDKPQDYKKRLSVELTSSLFRTEPMAWNETADLGLDIGAQGEPLGYRQDDPSYRSFHSGGYGQDALGMDPMMEHEMGGHHPGADYPVDGLPDLGHAQDLMDGLPPGDSNQLAWFDTDL

Variants of: B1
Assay: GST pull-down, immunoblot anti-β-catenin, quantified; purified proteins; mean ± SD of three experiments; parent: 1; read off a plot

ratio to parent | Variant
~1.1 | chain 1 T57A
~0.39 | chain 1 T57E
